Laboratory results taken from the RNAGym collection of RNA variant scans (doi:10.7554/elife.80360).

B1: HDV Ribozyme (parent)
chain: GGCCGGCAUGGUCCCAGCCUCCUCGCUGGCGCCGGCUGGGCAACAUUCCGAGGGGACCGUCCCCUCGGUAAUGGCGAAUGGGACCCA

Variants of: B1
Assay: self-cleavage, relative activity (ratio to wild type); higher = more cleavage; co-transcriptional

Row | Variant | self-cleavage
1 | GGCCGGCAUGGUCCCAGCCUCCUCGCUGGCGCCGUCUGGGCAACAUUCCGAGGGGACCGUCCCCUCGGUAAUGGCGAAUAGGACCCA [G35U G80A] | 0.101
2 | GGCCGGCAUGGUCCCAGCCUCCUCGCUGGCGCCGUCUGGGCAACAUUCCGAGGGGACCGUCCCCUCGGUAAUGGCGAAUCGGACCCA [G35U G80C] | 0.0567
3 | GGCCGGCAUGGUCCCAGCCUCCUCGCUGGCGCCGUCUGGGCAACAUUCCGAGGGGACCGUCUCCUCGGUAAUGGCGAAUGGGACCCA [G35U C62U] | 0.486
4 | GGCCGGCAUGGUCCCAGCCUCCUCGCUGGCGCCGUCUGGGCAACAUUCCGAGGGGACCGUCACCUCGGUAAUGGCGAAUGGGACCCA [G35U C62A] | 0.261
5 | GGCCGGCAUGGUCCCAGCCUCCUCGCUGGCGCCGUCUGGGCAACGUUCCGAGGGGACCGUCCCCUCGGUAAUGGCGAAUGGGACCCA [G35U A45G] | 0.365
6 | GGCCGGCAUGGUCCCAGCCUCCUCGCUGGCGCCGUCUGGGCAACAUUCAGAGGGGACCGUCCCCUCGGUAAUGGCGAAUGGGACCCA [G35U C49A] | 0.499
7 | GGCCGGCAUGGUCCCAGCCUCCUCGCUGGCGCCGUCUGGGCAACAUUCCGAGGGGACCGUCCCCUCGGUAAUGGCGAAUGGGACCCU [G35U A87U] | 0.451
8 | GGCCGGCAUGGUCCCAGCCUCCUCGCUGGCGCCGUCUGGGCAUCAUUCCGAGGGGACCGUCCCCUCGGUAAUGGCGAAUGGGACCCA [G35U A43U] | 0.282
9 | GGCCGGCAUGGUCCCAGCCUCCUCGCUGGCGCCGUCUGGGCAGCAUUCCGAGGGGACCGUCCCCUCGGUAAUGGCGAAUGGGACCCA [G35U A43G] | 0.185
10 | GGCCGGCAUGGUCCCAGCCUCCUCGCUGGCGCCGUCUGGGCAACAUUCCGAGGGGACCGUCCCCUCGGUAAUGGUGAAUGGGACCCA [G35U C75U] | 0.095
11 | GGCCGGCAUGGUCCCAGCCUCCUCGCUGGCGCCGUCUGGGCAACAUUCCGAGGGGACCGUCCCCUCGGUAAUGGAGAAUGGGACCCA [G35U C75A] | 0.138
12 | GGCCGGCAUGGUCCCAGCCUCCUCGCUGGCGCCGUCUGGGCAACAUUCCGAGGGGACCGUCCCCUCGGUAAUGGGGAAUGGGACCCA [G35U C75G] | 0.0378
13 | GGCCGGCAUGGUCCCAGCCUCCUCGCUGGCGCCGUCUGGGCAACAUUCCGAGGGGACCGUCCCCUCGGUAAUGGCAAAUGGGACCCA [G35U G76A] | 0.404
14 | GGCCGGCAUGGUCCCAGCCUCCUCGCUGGCGCCGUCUGUGCAACAUUCCGAGGGGACCGUCCCCUCGGUAAUGGCGAAUGGGACCCA [G35U G39U] | 0.0941
15 | GGCCGGCAUGGUCCCAGCCUCCUCGCUGGCGCCGUCUGGGCAACAUUCCGAGGGGACCGUCCCCUCGGUAAUGGCGUAUGGGACCCA [G35U A77U] | 0.175
16 | GGCCGGCAUGGUCCCAGCCUCCUCGCUGGCGCCGUCUGGGCAACAUUCCGAGGGGACCGUCCCCUCGGUAAUGGCGAAUGGGACUCA [G35U C85U] | 0.623
17 | GGCCGGCAUGGUCCCAGCCUCCUCGCUGGCGCCGUCUGGGCAACAUUCCGAGUGGACCGUCCCCUCGGUAAUGGCGAAUGGGACCCA [G35U G53U] | 0.288
18 | GGCCGGCAUGGUCCCAGCCUCCUCGCUGGCGCCGUCUGGGCAACAUUACGAGGGGACCGUCCCCUCGGUAAUGGCGAAUGGGACCCA [G35U C48A] | 0.49
19 | GGCCGGCAUGGUCCCAGCCUCCUCGCUGGCGCCGUCUGGGCAACAUUGCGAGGGGACCGUCCCCUCGGUAAUGGCGAAUGGGACCCA [G35U C48G] | 0.312
20 | GGCCGGCAUGGUCCCAGCCUCCUCGCUGGCGCCGUCUGGGCAACAUUCCGAGGUGACCGUCCCCUCGGUAAUGGCGAAUGGGACCCA [G35U G54U] | 0.448
21 | GGCCGGCAUGGUCCCAGCCUCCUCGCUGGCGCCGUCUGGGCAACAUUCCGAGGGGACCGUCCCCUCGGUAAUGGCGAAUGGGACCCA [G35U] | 0.454
22 | GGCCGGCAUGGUCCCAGCCUCCUCGCUGGCGCCGUCUGGGCAACAUUCCGAGGGGACCCUCCCCUCGGUAAUGGCGAAUGGGACCCA [G35U G59C] | 0.7

Row | Variant | self-cleavage
23 | GGCCGGCAUGGUCCCAGCCUCCUCGCUGGCGCCGUCUGGGCAACAUUCCGAGGGGACCAUCCCCUCGGUAAUGGCGAAUGGGACCCA [G35U G59A] | 0.415
24 | GGCCGGCAUGGUCCCAGCCUCCUCGCUGGCGCCGUCUGGGCAACAUUCCGAGGGGACAGUCCCCUCGGUAAUGGCGAAUGGGACCCA [G35U C58A] | 0.554
25 | GGCCGGCAUGGUCCCAGCCUCCUCGCUGGCGCCGUCUGGGCAACAUUCCGAGGGGACUGUCCCCUCGGUAAUGGCGAAUGGGACCCA [G35U C58U] | 0.249
26 | GGCCGGCAUGGUCCCAGCCUCCUCGCUGGCGCCGUCUGGGCAACAUUCCGAGGGGACCGUCCCCUCGAUAAUGGCGAAUGGGACCCA [G35U G68A] | 0.351
27 | GGCCGGCAUGGUCCCAGCCUCCUCGCUGGCGCCGUCUAGGCAACAUUCCGAGGGGACCGUCCCCUCGGUAAUGGCGAAUGGGACCCA [G35U G38A] | 0.0702
28 | GGCCGGCAUGGUCCCAGCCUCCUCGCUGGCGCCGUCUGGGCAACAUUCCGAGGGGACCGUCCACUCGGUAAUGGCGAAUGGGACCCA [G35U C63A] | 0.389
29 | GGCCGGCAUGGUCCCAGCCUCCUCGCUGGCGCCGUCUGGGCAACAUUCCGAGGGGACCGUCCCCUCGGUAAUGGCGAGUGGGACCCA [G35U A78G] | 0.0723
30 | GGCCGGCAUGGUCCCAGCCUCCUCGCUGGCGCCGUCUGGGCAACAUUCCGAGGGGACCGUCCCCUCGGUCAUGGCGAAUGGGACCCA [G35U A70C] | 0.354
31 | GGCCGGCAUGGUCCCAGCCUCCUCGCUGGCGCCGUCUGGCCAACAUUCCGAGGGGACCGUCCCCUCGGUAAUGGCGAAUGGGACCCA [G35U G40C] | 0.136
32 | GGCCGGCAUGGUCCCAGCCUCCUCGCUGGCGCCGUCUGGGCAACAUUCCGAGGGGACCGUCCCCUCGGUAAUGGCGAAUGGGAGCCA [G35U C84G] | 0.185
33 | GGCCGGCAUGGUCCCAGCCUCCUCGCUGGCGCCGUCUGGGCAACAUUCCGAGGGGACCGUCCCCUCGGUAAUGGCGAAUGGGAUCCA [G35U C84U] | 0.343
34 | GGCCGGCAUGGUCCCAGCCUCCUCGCUGGCGCCGUCUGGGCAACAUUCCUAGGGGACCGUCCCCUCGGUAAUGGCGAAUGGGACCCA [G35U G50U] | 0.426
35 | GGCCGGCAUGGUCCCAGCCUCCUCGCUGGCGCCGUCUGGGCAACAUUCCCAGGGGACCGUCCCCUCGGUAAUGGCGAAUGGGACCCA [G35U G50C] | 0.443
36 | GGCCGGCAUGGUCCCAGCCUCCUCGCUGGCGCCGUCUGGGCAACAUUCCAAGGGGACCGUCCCCUCGGUAAUGGCGAAUGGGACCCA [G35U G50A] | 0.472
37 | GGCCGGCAUGGUCCCAGCCUCCUCGCUGGCGCCGUCUGGGCAACAUUCCGAGGGUACCGUCCCCUCGGUAAUGGCGAAUGGGACCCA [G35U G55U] | 0.508
38 | GGCCGGCAUGGUCCCAGCCUCCUCGCUGGCGCCGUCUGGGCAAGAUUCCGAGGGGACCGUCCCCUCGGUAAUGGCGAAUGGGACCCA [G35U C44G] | 0.0755
39 | GGCCGGCAUGGUCCCAGCCUCCUCGCUGGCGCCGUCUGGGCAAAAUUCCGAGGGGACCGUCCCCUCGGUAAUGGCGAAUGGGACCCA [G35U C44A] | 0
40 | GGCCGGCAUGGUCCCAGCCUCCUCGCUGGCGCCGCCUGGGCAACAUUCCGAGGGGACCGUCCCCUCGGUAACGGCGAAUGGGACCCA [G35C U72C] | 0.156
41 | GGCCGGCAUGGUCCCAGCCUCCUCGCUGGCGCCGCCUGGGCAACAUUCCGAGGGGACCGUCCCCUCGGUAAGGGCGAAUGGGACCCA [G35C U72G] | 0.346
42 | GGCCGGCAUGGUCCCAGCCUCCUCGCUGGCGCCGCCUGGGCAACAUUCCGAGGGGACCGUCCCCUCGGUAAUGGCGAACGGGACCCA [G35C U79C] | 0.132
43 | GGCCGGCAUGGUCCCAGCCUCCUCGCUGGCGCCGCCUGGGCAACAUUCCGAGGGGACCGUCCCCUCGGUAAUGGCGAAAGGGACCCA [G35C U79A] | 0.122
44 | GGCCGGCAUGGUCCCAGCCUCCUCGCUGGCGCCGUCUGGGCAACAUUCCGAGGGGUCCGUCCCCUCGGUAAUGGCGAAUGGGACCCA [G35U A56U] | 0.62

Row | Variant | self-cleavage
45 | GGCCGGCAUGGUCCCAGCCUCCUCGCUGGCGCCGUCUGGGCAACAUUCCGAGGGGCCCGUCCCCUCGGUAAUGGCGAAUGGGACCCA [G35U A56C] | 0.358
46 | GGCCGGCAUGGUCCCAGCCUCCUCGCUGGCGCCGUCUGGGCAACAUUCCGAGGGGGCCGUCCCCUCGGUAAUGGCGAAUGGGACCCA [G35U A56G] | 0.393
47 | GGCCGGCAUGGUCCCAGCCUCCUCGCUGGCGCCGUUUGGGCAACAUUCCGAGGGGACCGUCCCCUCGGUAAUGGCGAAUGGGACCCA [G35U C36U] | 0.101
48 | GGCCGGCAUGGUCCCAGCCUCCUCGCUGGCGCCGUAUGGGCAACAUUCCGAGGGGACCGUCCCCUCGGUAAUGGCGAAUGGGACCCA [G35U C36A] | 0.0831
49 | GGCCGGCAUGGUCCCAGCCUCCUCGCUGGCGCCGUCUGGGCAACAUUCCGAGGGGACCGUCCCCUCGGUAUUGGCGAAUGGGACCCA [G35U A71U] | 0.178
50 | GGCCGGCAUGGUCCCAGCCUCCUCGCUGGCGCCGUCUGGGCAACAUUCCGAGGGGACCGUCCCCUCGGUACUGGCGAAUGGGACCCA [G35U A71C] | 0.237
51 | GGCCGGCAUGGUCCCAGCCUCCUCGCUGGCGCCGUCUGGGCAACAUUCCGAGGGGACCGUCCCCUCGGUAGUGGCGAAUGGGACCCA [G35U A71G] | 0.308
52 | GGCCGGCAUGGUCCCAGCCUCCUCGCUGGCGCCGUCUGGGCAACAUUCCGAGGGGACCGUCCCAUCGGUAAUGGCGAAUGGGACCCA [G35U C64A] | 0.351
53 | GGCCGGCAUGGUCCCAGCCUCCUCGCUGGCGCCGUCUGGGCAACAUUCCGAGGGGACCGUCCCGUCGGUAAUGGCGAAUGGGACCCA [G35U C64G] | 0.403
54 | GGCCGGCAUGGUCCCAGCCUCCUCGCUGGCGCCGUCUGGGCAACAUUCCGAGGGGACCGUCCCCUUGGUAAUGGCGAAUGGGACCCA [G35U C66U] | 0.459
55 | GGCCGGCAUGGUCCCAGCCUCCUCGCUGGCGCCGUCUGGGCAACAUUCCGAGGGGACCGUCCCCUCGGUAAUGGCGAAUGGCACCCA [G35U G82C] | 0.161
56 | GGCCGGCAUGGUCCCAGCCUCCUCGCUGGCGCCGUCUGGGCAACAUUCCGAGGGGACCGUCCCCUCGGUAAUGGCGAAUGGUACCCA [G35U G82U] | 0.162
57 | GGCCGGCAUGGUCCCAGCCUCCUCGCUGGCGCCGUCUGGGCAACAUUCCGAGGGGACCGUCCCCUCGGUAAUUGCGAAUGGGACCCA [G35U G73U] | 0.19
58 | GGCCGGCAUGGUCCCAGCCUCCUCGCUGGCGCCGUCUGGGCAACAUUCCGAAGGGACCGUCCCCUCGGUAAUGGCGAAUGGGACCCA [G35U G52A] | 0.483
59 | GGCCGGCAUGGUCCCAGCCUCCUCGCUGGCGCCGUCUGGGCAACAUUCCGAUGGGACCGUCCCCUCGGUAAUGGCGAAUGGGACCCA [G35U G52U] | 0.459
60 | GGCCGGCAUGGUCCCAGCCUCCUCGCUGGCGCCGUCUGGGCAACAUUCCGUGGGGACCGUCCCCUCGGUAAUGGCGAAUGGGACCCA [G35U A51U] | 0.471
61 | GGCCGGCAUGGUCCCAGCCUCCUCGCUGGCGCCGUCUGGGCAACAUUCCGAGGGGACCGUCCCCUCUGUAAUGGCGAAUGGGACCCA [G35U G67U] | 0.391
62 | GGCCGGCAUGGUCCCAGCCUCCUCGCUGGCGCCGUCUGGGCAACAUUCCGAGGGGAUCGUCCCCUCGGUAAUGGCGAAUGGGACCCA [G35U C57U] | 0.538
63 | GGCCGGCAUGGUCCCAGCCUCCUCGCUGGCGCCGUCUGGGCAACAUUCCGAGGGGAACGUCCCCUCGGUAAUGGCGAAUGGGACCCA [G35U C57A] | 0.517
64 | GGCCGGCAUGGUCCCAGCCUCCUCGCUGGCGCCGUCUGGGCAACAUUCCGAGGGGAGCGUCCCCUCGGUAAUGGCGAAUGGGACCCA [G35U C57G] | 0.415
